Test results as given in patent US20150065434A1 (MUSC FOUNDATION FOR RESEARCH DEVELOPMENT, published 2015).
Bridge positions count the residues as written; N and C are the ends. Ends that are not written are not given here.

Tests used:
[1] = biological target: T1, human monoamine oxidase A (human, UniProt P21397 1-527, limits assumed); experiment: cell-based or functional assay
T1 sequence (looked up): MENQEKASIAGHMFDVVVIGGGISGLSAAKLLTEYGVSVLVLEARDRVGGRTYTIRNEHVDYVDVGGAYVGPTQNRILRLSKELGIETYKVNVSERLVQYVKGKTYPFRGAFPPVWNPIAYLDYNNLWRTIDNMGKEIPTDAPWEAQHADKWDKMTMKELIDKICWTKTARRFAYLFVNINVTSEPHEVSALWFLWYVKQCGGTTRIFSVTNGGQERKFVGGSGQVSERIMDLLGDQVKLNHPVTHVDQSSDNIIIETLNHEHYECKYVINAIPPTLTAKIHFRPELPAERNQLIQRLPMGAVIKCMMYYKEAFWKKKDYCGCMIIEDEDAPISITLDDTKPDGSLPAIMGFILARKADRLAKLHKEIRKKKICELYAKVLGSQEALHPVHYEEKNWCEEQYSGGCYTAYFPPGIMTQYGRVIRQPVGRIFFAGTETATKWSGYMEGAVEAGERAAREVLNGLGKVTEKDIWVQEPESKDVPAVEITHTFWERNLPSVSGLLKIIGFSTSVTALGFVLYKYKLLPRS

[2] = biological target: T2, human monoamine oxidase B (human, UniProt P27338 1-520, limits assumed); experiment: cell-based or functional assay
T2 sequence (looked up): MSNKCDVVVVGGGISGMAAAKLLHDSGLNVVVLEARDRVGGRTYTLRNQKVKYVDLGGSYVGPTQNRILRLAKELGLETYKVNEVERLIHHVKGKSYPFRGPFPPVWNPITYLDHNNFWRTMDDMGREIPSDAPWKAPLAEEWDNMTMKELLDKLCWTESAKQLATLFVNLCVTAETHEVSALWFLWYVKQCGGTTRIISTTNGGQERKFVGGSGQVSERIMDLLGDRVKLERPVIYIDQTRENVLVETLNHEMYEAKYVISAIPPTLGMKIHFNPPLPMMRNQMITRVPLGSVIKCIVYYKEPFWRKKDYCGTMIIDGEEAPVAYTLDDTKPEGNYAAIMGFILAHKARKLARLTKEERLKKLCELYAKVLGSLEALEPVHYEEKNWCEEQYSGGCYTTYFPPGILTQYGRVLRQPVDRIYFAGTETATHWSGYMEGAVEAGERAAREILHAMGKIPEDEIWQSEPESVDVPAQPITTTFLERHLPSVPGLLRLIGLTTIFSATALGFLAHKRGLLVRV

IC50 (inhibition of MAO-A) [1]: > 100 µM
IC50 (inhibition of MAO-B) [2]: > 100 µM
Binder: ARTMKTARKETGGKAPRKQLA-NH2 (lactam 5-10) [[Met]^4 H3 (1-21)-NH2 cyclic peptide 11, lactam bridge between Lys5 and Glu10]
